Key:
[1] = molecular target: the molecule itself; assay: TEM of capsid self-assembly, E. coli, transcript with TMV OAS (only disks without OAS)
[2] = molecular target: the molecule itself; assay: TEM of capsid self-assembly

Protein | binding result [1] | binding result [2]
wild-type Barley stripe mosaic virus coat protein (BSMV-CP) (other, Capsid subunit expressed in E. coli; many copies assemble into disks or rod-shaped VLPs; Rods of the wild type were obtained from the transcript carrying the TMV origin of assembly (RNA); also called BSMV capsid protein; wildtype BSMV VLPs) MPNVSLTAKGGGHYIEDQWDTQVVEAGVFDDWWVHVEAWNKFLDNLRGINFSVASSRSQVAEYLAALDRDLPADVDRRFAGARGQIGSPNYLPAPKFFRLDKRTIAELTRLSRLTDQPHNNRDIELNRAKRATTNPSPPAQAPSENLTLRDVQPLKDSALHYQYVLIDLQSARLPVYTRKTFERELALEWIIPDAEEA | binds | –
BSMV-CP having a point mutation at residue D101N (other, Capsid subunit expressed in E. coli; self-assembles into rod-shaped VLPs; also called BSMV-CP-D101N) MPNVSLTAKGGGHYIEDQWDTQVVEAGVFDDWWVHVEAWNKFLDNLRGINFSVASSRSQVAEYLAALDRDLPADVDRRFAGARGQIGSPNYLPAPKFFRLNKRTIAELTRLSRLTDQPHNNRDIELNRAKRATTNPSPPAQAPSENLTLRDVQPLKDSALHYQYVLIDLQSARLPVYTRKTFERELALEWIIPDAEEA | – | binds
BSMV-CP having point mutations at both residues E62Q and D101N (other, Capsid subunit expressed in E. coli; self-assembles into rod-shaped VLPs; also called E62Q/D101N; BSMV-CP-E62Q/D101N) MPNVSLTAKGGGHYIEDQWDTQVVEAGVFDDWWVHVEAWNKFLDNLRGINFSVASSRSQVAQYLAALDRDLPADVDRRFAGARGQIGSPNYLPAPKFFRLNKRTIAELTRLSRLTDQPHNNRDIELNRAKRATTNPSPPAQAPSENLTLRDVQPLKDSALHYQYVLIDLQSARLPVYTRKTFERELALEWIIPDAEEA | – | binds
BSMV-CP having a point mutation at residue E62Q (other, Capsid subunit expressed in E. coli; self-assembles into rod-shaped VLPs; also called BSMV-CP-E62Q) MPNVSLTAKGGGHYIEDQWDTQVVEAGVFDDWWVHVEAWNKFLDNLRGINFSVASSRSQVAQYLAALDRDLPADVDRRFAGARGQIGSPNYLPAPKFFRLDKRTIAELTRLSRLTDQPHNNRDIELNRAKRATTNPSPPAQAPSENLTLRDVQPLKDSALHYQYVLIDLQSARLPVYTRKTFERELALEWIIPDAEEA | – | binds
BSMV-CP having a point mutation at residue D101R (other, Capsid subunit expressed in E. coli; self-assembles into rod-shaped VLPs; also called BSMV-D101R; BSMV-D101R VLPs) MPNVSLTAKGGGHYIEDQWDTQVVEAGVFDDWWVHVEAWNKFLDNLRGINFSVASSRSQVAEYLAALDRDLPADVDRRFAGARGQIGSPNYLPAPKFFRLRKRTIAELTRLSRLTDQPHNNRDIELNRAKRATTNPSPPAQAPSENLTLRDVQPLKDSALHYQYVLIDLQSARLPVYTRKTFERELALEWIIPDAEEA | – | binds
